Experimental data as given in publication PMC7228087, “Atco, a yeast mitochondrial complex of Atp9 and Cox6, is an assembly intermediate of the ATP synthase” (PLoS ONE, 2020).

Target: T1, Cox6 with a tandem hemagglutinin plus protein C tag (S. cerevisiae, UniProt P00427 41-148)
T1 construct: Cox6, nuclear-encoded imported structural subunit of cytochrome oxidase, S. cerevisiae; also called Cox6-HAC; COX6-HAC; source: expressed in S. cerevisiae (cox6::URA3 trp1::pG71/ST9), in digitonin extract of mitochondria
T1 sequence (looked up): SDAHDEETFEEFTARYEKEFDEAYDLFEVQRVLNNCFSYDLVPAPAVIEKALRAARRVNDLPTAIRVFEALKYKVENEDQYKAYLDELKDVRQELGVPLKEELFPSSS
Experiment: co-IP; as a1 but from an oxa1 null mutant expressing Cox6-HAC; radiolabel quantified as ratio to the OXA1 strain
Conditions: partners not purified

B1: Atp9 (natural protein, UniProt P61829 1-76, looked up)
chain: MQLVLAAKYIGAGISTIGLLGAGIGIAIVFAALINGVSRNPSIKDTVFPMAILGFALSEATGLFCLMVSFLLLFGV
notes: Atp9, mitochondrially encoded subunit of the ATP synthase ring, S. cerevisiae; wild type with native cysteine at residue 65; The introduction says that the ring of the ATP synthase has 10 copies of Atp9; In Atco the protein is oligomeric but not a ring; also called A9; Atp9 ring; source: submitochondrial particles for Western blots
**Q.** B1 was tested. Which “ratio (Δoxa1/OXA1) of radiolabel in the PC eluate, SDS-PAGE” value did it give?
**A.** Its value is 0.124 ratio.
